Results on twelve molecules are retold here after PMC9410896.

Like-named read-outs stand apart in the source and are kept apart here.

For data set [1], the target named is T1, MucR1 (Sinorhizobium fredii CCBAU45436, UniProt C3M8K5 1-143, A8T;V56I).
T1 sequence: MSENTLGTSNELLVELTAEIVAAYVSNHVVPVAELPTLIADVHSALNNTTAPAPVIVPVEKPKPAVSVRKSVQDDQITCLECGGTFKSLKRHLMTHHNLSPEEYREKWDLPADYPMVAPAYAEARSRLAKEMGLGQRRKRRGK
The data set is described as follows: EMSA.

Data set [2] deals with T1, MucR1. Put plainly: EMSA. The source holds these as a separate data set.

B1: motif_b6 (dsDNA)
DNA 1: ATAGACAACGCAAAGTATTGA
DNA 2: TCAATACTTTGCGTTGTCTAT
As for B1, the binding result in the data set with MucR1 [1] is given as “binds”.

B2: motif_b1(2) (dsDNA)
DNA 1: GGTATTTTTTGGGGAATTGAAT
DNA 2: ATTCAATTCCCCAAAAAATACC
As to B2, the binding result in the data set with MucR1 [1] is “binds”.

B3: motif_b3 (dsDNA)
DNA 1: ATGCTTCCAAGTTGTTTAGGT
DNA 2: ACCTAAACAACTTGGAAGCAT
As to B3, the binding result with MucR1 [1] is on record as “binds”.

B4: motif_b4 (dsDNA)
DNA 1: TTATATTGACCGACTGAGATA
DNA 2: TATCTCAGTCGGTCAATATAA
Consider B4, for which the binding result with MucR1 [1] was “binds”.

B5: spacer S2 (primer name spacer1) (dsDNA)
DNA 1: GCCCAGTTCTACTCCATTTTTAGTAGAAA
DNA 2: TTTCTACTAAAAATGGAGTAGAACTGGGC
Regarding B5, in the data set with MucR1 [1], the binding result is on record as “binds”.

B6: spacer S4 (dsDNA)
DNA 1: AAACATTGACTGTATATAATTTTA
DNA 2: TAAAATTATATACAGTCAATGTTT
As for B6, the binding result with MucR1 [1] is on record as “binds”.

B7: motif_b5 (dsDNA)
DNA 1: TTTAAATCACCTATTTATATT
DNA 2: AATATAAATAGGTGATTTAAA
On to B7, for which the binding result in the data set with MucR1 [1] is reported as “binds”.

B8: motif_b8 (dsDNA)
DNA 1: CAATTGTATTGATATATCCAT
DNA 2: ATGGATATATCAATACAATTG
Consider B8, for which the binding result with MucR1 [2] is listed as “binds”.

B9: spacer S1 (primer name spacer2) (dsDNA)
DNA 1: GCCCAGTTCTACTCCATTTT
DNA 2: AAAATGGAGTAGAACTGGGC
B9: in the data set with MucR1 [1], the binding result is listed as “binds”.

B10: motif_a1 (dsDNA)
DNA 1: GTTGTTTAGGTATTTTTTGGGGAATTGAAT
DNA 2: ATTCAATTCCCCAAAAAATACCTAAACAAC
For the molecule B10, the binding result in the data set with MucR1 [1] was “binds”.

B11: motif_b7 (dsDNA)
DNA 1: ATTGATATATCCATAGACAAC
DNA 2: GTTGTCTATGGATATATCAAT
For the molecule B11, the binding result with MucR1 [1] was “binds”.

B12: spacer S3 (dsDNA)
DNA 1: AATTATCGGGATCGGGGGATAATGACA
DNA 2: TGTCATTATCCCCCGATCCCGATAATT
On to B12, for which the binding result with MucR1 [1] is recorded as “binds”.
